According to the DeepSol protein solubility set:

Assay: soluble on expression in E. coli; label from the status in PepcDB or PDB records

Row | Sequence | soluble on expression in E. coli
1 | MDPFDRPKNDNDPFEDALKRCHKILEKLDCPFVTGKEKDLDESDDMTENEDHDEMANEDDGIPSNEKKVETRKMDCTSGQLLAPKLPEKAESISSASESSEDSESVAILKYTVRTCYAIWKKRQKNSEIALKGLMIVLELCLSQPSARDDAFSALLETLGYNTVTFWKAVVPQIYNSDLSYATQYREALLFSLVLYDVNHSKNRLRELYAAVPGVRQSMLGIRAKQFGERYRHLQMKIARSRASSRMSSKMGSEENLPAMASMMNDVVFDEEPHTQSPLVDMSHDKQRVINVSNAPPVSISRKTSGSWEIKQGSGGLVACVDPVMSADKKNIWLSNLGVNMQEELKEHSTSTNSLGLPLIKQACAGEVFCVLERNEKKEELTPKQQAVESDMSLLSVLNTYNKHSYQLNPVVVNQDDYNTYYGGISNGLLWPALHNLPQYISPCFDDPELLREQWCAYVRVNYLFAINAARNSRAQDFIWIHDYHLMLCGQIMRSLESSLDIGFFIHIPFQPPANFMTKYKTVADPIMRALLRFTKVGFQTSRDRDTFVKLVAKHIKRTKIEYDSRLDRYTIEHDGWTCSLGVFPVSIKIADFVNIAKNPQTIIEAEEIKKQIMGRSADGGQLFFSVERFDYTKGISEKLRAWQRYFEKYPDRIGKDVLFQVAVTNRRSVDSYRQYQDDVLAVADLINQKFKSEDYPEWKPVIFETDGLPRTRLIAHYLAMDIGVVTPSKDGMNLVAKEMLVCNPTASLVLSTGAGTEVQLSNAQFYSEQEGKCYHRVEEISNTEAFADNFFAAATESKETRTKHGEKINQFLCVHDIDEWSDQFLDPKWTHEVISQCEVKQLGQFYGLMSRTAQVRRQIVECVLKGLPIRPHFRYSLENAKNSLESSCKSGTKLSLEADEESGEEKGFEITYDIHDELSEMEKDLAFLAFIQSDEYENAEEFIKTLGSFYEGGPVLFKNEVKQAAEMLQQGIHYNTFFTDRDGTLKSYACSYPTSVQPAYSAVIQAQFARRCATFCAIVTTAPLLHTGILEVATIPEGYYAYGASAGREWYLNPAQQFKDRSFSAIDLNLMNKVFDIIEELLERPEFRIFKWIGSGIQKHCGHITIAKQDVNGTIPSRKVIRLYEQLVKIVNDFDPNGTTLTMRESDLDFKIYVKAKLKGRIFNKGHGIRLVRERLKPNMSKGNCLVCGDNESDIPMLEECLKLAGSKVYTIWVTADTNLQEKVTQLCDRFSCSNIHFVSCPQVLLGAMAYATAHTLVDERNRKLDYYYDSDTPMDQEESSTLGASLGTSFGN | not soluble
2 | MGSDKIHHHHHHMSEVLKRRMRCAVYTRKSTDEGLDQEYNSIDAQRDAGHAYIASQRAEGWIPVADDYDDPAFSGGNMERPALQRMMADIEAGKIDVVVIYKIDRLTRSLADFSKMVEVFERYAVSFVSVTQQFNTTTSMGRLMLNILLSFAQFEREVTGERIRDKISASKRKGMWMGGVPPLGYDVENRRLVPNEREAKLIRHIFQRFVELGSSTALVKELKLDGVTSKAWTTQDGKTRDGRLIDKGHIYKLLSNRTYLGELRHKDQWYQAEHPPIINRELWDSVHAILETNGRVRGNTTRAKVPYLLKGIVFGNDGRALSPWHTTKKNGRRYRYYVPQRDAKEHAGASGLPRLPAAELESAVLDQLRAILRAPNLLGEMLPQAIKLDPTLDEAKITVAMTRLDAIWDQLFPAEQTRIVKLLVEKVIVSPNDLEVRLRANGIERLVLELRPEPVEQQEVARA | not soluble
3 | MVSCQGTRPCIVNLLTMPSEDKLGEEISTRVINEYSKLKSACRPIIRPSGIREWTILAGVAAINRDGGANKIEILSIATGVKALPDSELQRSEGKILHDCHAEILALRGANTVLLNRIQNYNPSSGDKFIQHNDEIPARFNLKENWELALYISRLPCGDASMSFLNDNCKNDDFIKIEDSDEFQYVDRSVKTILRGRLNFNRRNVVRTKPGRYDSNITLSKSCSDKLLMKQRSSVLNCLNYELFEKPVFLKYIVIPNLEDETKHHLEQSFHTRLPNLDNEIKFLNCLKPFYDDKLDEEDVPGLMCSVKLFMDDFSTEEAILNGVRNGFYTKSSKPLRKHCQSQVSRFAQWELFKKIRPEYEGISYLEFKSRQKKRSQLIIAIKNILSPDGWIPTRTDDVK | not soluble
4 | HVEQSNKDELLLEEITSWLEKNTDGKIVVFCGDKTVADNVYKFIEQNLPSVERHIDGKLPGFNISPQYNVLICDQSGEDGLNLQGKCRLAIHYSLPRTVMRIEQRIGRLNRYSASSIGVLPV | not soluble
5 | MTKQLPNLQVALDHSNLKGAITAAVSVGNEVDVIEAGTVCLLQVGSELVEVLRSLFPDKIIVADTKCADAGGTVAKNNAVRGADWMTCICSATIPTMKAARKAIEDINPDKGEIQVELYGDWTYDQAQQWLDAGISQAIYHQSRDALLAGETWGEKDLNKVKKLIEMGFRVSVTGGLSVDTLKLFEGVDVFTFIAGRGITEAKNPAGAARAFKDEIKRIWG | soluble
6 | HHHHHHMASSAQDGNNPLFSPYKMGKFNLSHRVVLAPMTRCRALNNIPQAALGEYYEQRATAGGFLITEGTMISPTSAGFPHVPGIFTKEQVREWKKIVDVVHAKGAVIFCQLWHVGRASHEVYQPAGAAPISSTEKPISNRWRILMPDGTHGIYPKPRAIGTYEISQVVEDYRRSALNAIEAGFDGIEIHGAHGYLIDQFLKDGINDRTDEYGGSLANRCKFITQVVQAVVSAIGADRVGVRVSPAIDHLDAMDSNPLSLGLAVVERLNKIQLHSGSKLAYLHVTQPRYVAYGQTEAGRLGSEEEEARLMRTLRNAYQGTFICSGGYTRELGIEAVAQGDADLVSYGRLFISNPDLVMRIKLNAPLNKFNRKTFYTQDPVVGYTDYPFLQGNGSNGPLSRL | soluble
7 | MAHHHHHHSLDSLGAINKIQDFLQKQEYKTLEYNLTTTEVVMENVTAFWEEGFGELFEKAKQNNNNRKTSNGDDSLFFSNFSLLGTPVLKDINFKIERGQLLAVAGSTGAGKTSLLMMIMGELEPSEGKIKHSGRISFCSQFSWIMPGTIKENIIFGVSYDEYRYRSVIKACQLEEDISKFAEKDNIVLGEGGITLSGGQRARISLARAVYKDADLYLLDSPFGYLDVLTEKEIFESCVCKLMANKTRILVTSKMEHLKKADKILILHEGSSYFYGTFSELQNLQPDFSSKLMGCDSFDQFSAERRNSILTETLHRLSLEGDAPVSWTETKKQSFKQTGEFGEKRKNSILNPINSIRKEG | soluble
8 | MGHHHHHHSHMAKTYDYLFKLLLIGDSGVGKTCVLFRFSEDAFNSTFISTIGIDFKIRTIELDGKRIKLQIWDTAGQERFRTITTAYYRGAMGIMLVYDITNEKSFDNIRNWIRNIEEHASADVEKMILGNKCDVNDKRQVSKERGEKLALDYGIKFMETSAKANINVENAFFTLARDIKAKMDKKLEGNSPQGSNQGVKITPDQQKRSSFFRCVLL | soluble
9 | MGSDKIHHHHHHMTGVQFIDVTDSEAIFDDNQWDAVVLVTHGLDAIAQEELAMLASHGAQVDARVGRSTTLLFAPGLAGGRLIVAPVADGDSDIQDVRGYSDAARQGIKVAFDAGARRPLLIVTPSTQARYAQSMGVAALGCAQALWQSLERREVLGEMDNISQIGLLVDDKAGELLCAIEAGKHLARDLCGTEPERMSAPAFAQYCVDALEGLDLTMSVVEDRDVLERDYPLLSAVGRASFAVSRHQPRVVKLEYKAEGPIERSYFFAGKGVVYDTGGADLKVGGAMAGMSRDKGGAAAVAGLMKTLALLKPKGVRVVAELGLVRNSIGSEAFVTDEIITSHAGVRVRIGNTDAEGRLVLADLLSHLRLKAQDAVAPQLFSVATLTGHVVRAYGGYTAVVENAVARQQQVGDSLQTISEAWGEPIEVSRLRRDDYQKIVDPSGAADVLSSNNAPSSVTARGHQYPAAFLLKASGLEAHGLTSDKPLAYTHVDIAGSATEGDPLYGTPTAAPLVSLCQLIRG | not soluble
10 | HMGARASVLSGGELDKWEKIRLRPGGKKQYKLKHIVWASRELERFAVNPGLLETSEGCRQILGQLQPSLQTGSEELRSLYNTIAVLYCVHQRIDVKDTKEALDKIEEEQNKSKKKAQQAAADTGNNSQVSQNY | soluble
11 | MTRMLPEPAYRHGSVGKIGVLMINLGTPDAPTAKALRAYLKQFLSEPRIVEFPRWLWWFILNGIILNVRPAKSAKKYEQIWTSEGSPLRVHTARQTALVAALLEQQADSSLVVEYAMIIGNPSIAEKLQQMKVQGCDRILVLPLFPQYAASSTGCVLDGVFSELRKMRNIPDIRTVRHYHDDPGYIAALAQNVRDYWEKHGQPDKLIISFHGVPRKTLEMGDPYHCECQKTGRLLAEALELADDRYQICFQSRFGFAQWLGPYTAEILAELGKQKTGRVDVVCPGFVSDCLETLEEIALEGKAIFTEAGGGEFHYIPSLNEHPLWIEAIGNIIQTHLTGWADRRLSEEAAERSRKRALALGARE | not soluble
12 | MAHHHHHHMQQRKTNKLFYPVAFLHFFLGEDNERRMFRRLSTSTLAAAAVRFYTPSESLKKLYTSDFDKTEFPLSIVPSDSVLFAKFLYKAAEPNNSFDAILKDFQTIAAASSSLPIFWERTAVVEDVAEFKKLSEPMFFTLVWMQKNGMLDLIPEVSEIYETYVNAKMKRIVAKIYVAPGKEGEVGEAKRVAQELHKEAKELDGYTLVFKTVVDRSIVTGFAVELAGQYVNRAEGHKSHAPAADEADYTTIPAPRLPKTVWEDNIETEVLCRYLESLAEYDAEEAKHGV | not soluble
13 | MGSDKIHHHHHHMKHFKYGAIALTLISGLAACGGSGSDEPEVVVPETGFSFDADALIVNLSDEVIVKGYSTLADRGEALLQATQTLVATPTQANLEAAQSAWKAARQPWEQGESHIFGPVDSLGIDPHLDSWPLNTTDLKTVLINSSGFDAETIKGWNDDVQGFHTMEFLLFGDGMDDNVKQIDELTANERDYLMGLAEVFRDYTKQLADAWLVSHDGQSGKAYGELLKSPGVDGNTFYSSQVGVLEELIKGMIGIVDEVGNGKIADPFGGSLASADTSKVESQYSWNSLTDFSDNIIGVRNVYQGEFTGEADKQGIIDFVRAADSELASRIAAEIDAAILQIHAIEGTDKMPFRQAIKDEAGRARIQKAVDALATLQASLENQVLPLLKEWKV | not soluble
14 | MPRINSPHITGNYPSTPFIFYIPTSGQRPMQWSAEKLPEGLELDSKTGIISGVMTSKGDYTVTLKAENALGVSVKQLVIRIGDELLLEHHHHHH | not soluble
15 | MGSDKIHHHHHHMTQTTPQPDPSRLRDELVRLHGKASPEWDSLVRLDPRFVDAYLKFAGVPQRRNHLDDKTRAFIALAADACATQLYAPGVARHIERALSFGATREELIEVLELVSTIGIHTSNVGVPVLLEVLEEEGLRKGAPPLDERRQKLKAEFETNRGYWHPTWEGLLELDPDLFEAYVEFSSVPWRTGVLSPKIKEFMYCAFDASATHLYVPGLKLHIRNALRYGATAEELMELLEIVSVTGIHGAELGAPLLEAALKRSGAAAGEPHA | not soluble
16 | MGSDKIHHHHHHMEVASATNNPVQNPAGALAAPGNDAASLKNEFMTLMIAQIKNQDPTKPLNSAEYISQLAQFSQVESLEGMRKNQSNQMIMMENLGIVQSASLIGKNAMVPVSEFKLDGETVEGKVYLENAVEALDIEIVNSEGQVVHTMQLGAQAVGDIRFAIDPDELGLEKGQYEIKAKATLGENSLVAPTYIKAPIERIHFSSASGMMMAEMGHGVGVISVLNISEVS | not soluble
17 | MAHHHHHHMEVAFTISPGERQHVEYLADLFAIILAIEKVEKATLRDIITQEQYSSTITRLLDKYKSTVTYLEQSRNPFYSTIDSFWENYGSRCPAARTRIQLSFDDAKQQQQQQQDSDVNGTVDPRLVLECGQHFITLMDSLKLQQTAVDQLYTLLADLVRGLQRLGVTDQSFFHRLTTWKEKFDTMNASDELSERDTREFAFVLECGYQAFHAYLSESSARRPKA | not soluble
